Values of other authors as cited in article PMC2912364.

Molecular target: IL-15Rα (UniProt Q13261)
UniProt Q13261, sequence (Q13261 31-205): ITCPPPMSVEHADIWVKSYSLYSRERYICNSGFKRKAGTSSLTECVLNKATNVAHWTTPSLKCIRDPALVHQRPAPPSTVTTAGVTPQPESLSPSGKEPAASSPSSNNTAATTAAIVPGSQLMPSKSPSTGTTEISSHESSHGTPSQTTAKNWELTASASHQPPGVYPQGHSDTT

In the case of IL-15 (from UniProt P40933), the Kd is given as 0.038 nM.
